# Results from the supplement of paper PMC7877785.
# ± gives the uncertainty stated by the source.
# Experiment: self-splicing fitness, log relative to wild type (ln ratio); higher = more splicing; Tetrahymena group I intron in knt gene, E. coli kanamycin selection, DiMSum; sequences stand for … in CUCUCU…GGAGGGAAAAGUUAUCAGGCAUGCACCUGGUAGCUAGUCUUUAAACCAAUAGAUUGCAUCGGUUUAAAAGGCAAGACCGUCAAAUUGCGGGAAAGGGGUCAACAGCCGUUCAGUACCAAGUCUCAGGGGAAACUUUGAGAUGGCCUUGCAAAGGGUAUGGUAAUAAGCUGACGGACAUGGUCCUAACCACGCAGCCAAGUCCUAAGUCAACAGAUCUUCUGUUGAUAUGGAUGCAGUUCACAGACUAAAUGUCGGUCGGGGAAGAUGUAUUCUUCUCAUAAGAUAUAGUCGGACCUCUCCUUAAUGGGAGCUAGCGGAUGAAGUGAUGCAACACUGGAGCCGCUGGGAACUAAUUUGUAUGCGAAAGUAUAUUGAUUAGUUUUGGAGUACUCGUGGUCG
# In short: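 DiMSum derived fitness as the error-weighted combination of fold changes across replicates, kanamycin versus no kanamycin, normalised to wild type. E. coli BL21(DE3) held the library, which randomised all eight P1ex-region intron nucleotides within the knt kanamycin-resistance gene on pET-22b(+). Six replicate transformations grew overnight at 37°C or 30°C on LB agar with or without 25 μg/mL kanamycin, also containing 100 μg/mL carbenicillin, 50 μM IPTG and 0.2% rhamnose, and pooled colonies were amplicon-sequenced on an Illumina HiSeq 2500.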
Sequence,self-splicing fitness (ln) (30 °C),self-splicing fitness (ln) (37 °C)
UAGAAGCAAUAUUACGAUUG,-1.74 ± 0.07,-0.442 ± 0.083
UAGAAGCAAUAUUACGCAAA,-1.24 ± 0.22,-1.03 ± 0.31
UAGAAGCAAUAUUACGCCGG,-0.817 ± 0.12,-0.196 ± 0.18
UAGAAGCAAUAUUACGCUUG,-2.11 ± 0.11,-1.05 ± 0.12
UAGAAGCAAUAUUACGGAAG,-2.16 ± 0.22,-0.543 ± 0.23
UAGAAGCAAUAUUACGGCAA,-0.122 ± 0.075,-0.249 ± 0.088
UAGAAGCAAUAUUACGGGCG,0.0568 ± 0.11,-0.38 ± 0.13
UAGAAGCAAUAUUACGGGUC,-3.55 ± 0.33,-2.84 ± 0.44
UAGAAGCAAUAUUACGGUUA,0.144 ± 0.094,-0.007 ± 0.086
UAGAAGCAAUAUUACGUACU,-1.22 ± 0.1,-0.355 ± 0.14
UAGAAGCAAUAUUACGUCCG,0.777 ± 0.14,-0.199 ± 0.16
UAGAAGCAAUAUUACGUCUG,-1.12 ± 0.064,-0.959 ± 0.076
UAGAAGCAAUAUUACGUGAC,-3.33 ± 0.24,-2.28 ± 0.28
UAGAAGCAAUAUUACGUGCC,-2.13 ± 0.22,-0.962 ± 0.19
UAGAAGCAAUAUUACGUGUA,-1.95 ± 0.11,-0.392 ± 0.09
UAGAAGCAAUAUUACGUUUU,-3.58 ± 0.17,-2.85 ± 0.18
UAGCAGCAAUAUUACGAACA,-0.591 ± 0.069,0.237 ± 0.081
UAGCAGCAAUAUUACGAGCC,-2.62 ± 0.23,-1.9 ± 0.3
UAGCAGCAAUAUUACGAGGG,-1.97 ± 0.21,-1.96 ± 0.27
UAGCAGCAAUAUUACGAGUA,-1.39 ± 0.14,-0.225 ± 0.14
UAGCAGCAAUAUUACGAUUG,-0.536 ± 0.12,-0.509 ± 0.14

Sequence,self-splicing fitness (ln) (30 °C),self-splicing fitness (ln) (37 °C)
UAGCAGCAAUAUUACGCAGU,-3.58 ± 0.47,-2.18 ± 0.21
UAGCAGCAAUAUUACGCCUC,-3.28 ± 0.16,-1.11 ± 0.12
UAGCAGCAAUAUUACGCGGC,-3.84 ± 0.22,-1.6 ± 0.21
UAGCAGCAAUAUUACGCUUC,-3.05 ± 0.34,-2.25 ± 0.33
UAGCAGCAAUAUUACGGAAU,-3.87 ± 0.44,-2.13 ± 0.33
UAGCAGCAAUAUUACGGACA,-0.821 ± 0.11,-0.11 ± 0.13
UAGCAGCAAUAUUACGGCGA,-0.238 ± 0.077,0.939 ± 0.1
UAGCAGCAAUAUUACGGCUG,-3.72 ± 0.35,-2.64 ± 0.28
UAGCAGCAAUAUUACGGGCA,-0.608 ± 0.11,-0.41 ± 0.1
UAGCAGCAAUAUUACGGUUG,-1.17 ± 0.092,-0.442 ± 0.12
UAGCAGCAAUAUUACGUAGC,-3.58 ± 0.44,-2.78 ± 0.38
UAGCAGCAAUAUUACGUCCA,-0.794 ± 0.11,-0.187 ± 0.11
UAGCAGCAAUAUUACGUCUA,-0.114 ± 0.073,0.146 ± 0.084
UAGCAGCAAUAUUACGUCUU,-1.07 ± 0.071,-0.289 ± 0.085
UAGCAGCAAUAUUACGUUGU,-3.72 ± 0.21,-3.08 ± 0.26
UAGGAGCAAUAUUACGAACG,-0.534 ± 0.12,-0.578 ± 0.19
UAGGAGCAAUAUUACGACCA,-1.68 ± 0.13,-0.415 ± 0.19
UAGGAGCAAUAUUACGACUC,-2.01 ± 0.28,
UAGGAGCAAUAUUACGACUG,-0.384 ± 0.096,0.363 ± 0.14
UAGGAGCAAUAUUACGAGAA,-3.23 ± 0.44,-2.68 ± 0.42
UAGGAGCAAUAUUACGCAUU,-3.91 ± 0.35,-2.42 ± 0.42
